Measured values reported in paper PMC4841217, “Structure and stability of recombinant bovine odorant-binding protein: III. Peculiarities of the wild type bOBP unfolding in crowded milieu” (PeerJ, 2016).

Target: the molecule itself
Test: intrinsic tryptophan fluorescence (parameter A, fluorescence anisotropy r) with GdnHCl unfolding-refolding curves; recombinant bOBP 0.1-0.2 mg/mL in 20 mM Na-phosphate pH 7.8 with PEG-600, PEG-4000 or PEG-12000 at 80, 150 or 300 mg/mL; incubated at 4 °C, measured at 23 °C; monomer to dimer, inferred from raised anisotropy and sigmoidal unfolding curves

B1: recombinant bovine odorant-binding protein (natural protein)
chain: AQEEEAEQNLSELSGPWRTVYIGSTNPEKIQENGPFRTYFRELVFDDEKGTVDFYFSVKRDGKWKNVHVKATKQDDGTYVADYEGQNVFKIVSLSRTHLVAHNINVDKHGQTTELTELFVKLNVEDEDLEKFWKLTEDKGIDKKNVVNFLENEDHPHPE
notes: Written as the single chain that associates with itself into the domain-swapped dimer; also called bOBP; recombinant bOBP; source: E. coli BL21(DE3), purified (Ni+-agarose, HisGraviTrap columns)
B1: binds.
